The text below walks through data of patent US8053186 (OHIO STATE UNIVERSITY RESEARCH FOUNDATION, dated 2011).

B2: Drosha (endogenous, immunoprecipitated from SEMK2 or PER377 nuclear extracts) (enzyme, human, UniProt Q9NRR4 1-1374, looked up)
chain: MMQGNTCHRMSFHPGRGCPRGRGGHGARPSAPSFRPQNLRLLHPQQPPVQYQYEPPSAPSTTFSNSPAPNFLPPRPDFVPFPPPMPPSAQGPLPPCPIRPPFPNHQMRHPFPVPPCFPPMPPPMPCPNNPPVPGAPPGQGTFPFMMPPPSMPHPPPPPVMPQQVNYQYPPGYSHHNFPPPSFNSFQNNPSSFLPSANNSSSPHFRHLPPYPLPKAPSERRSPERLKHYDDHRHRDHSHGRGERHRSLDRRERGRSPDRRRQDSRYRSDYDRGRTPSRHRSYERSRERERERHRHRDNRRSPSLERSYKKEYKRSGRSYGLSVVPEPAGCTPELPGEIIKNTDSWAPPLEIVNHRSPSREKKRARWEEEKDRWSDNQSSGKDKNYTSIKEKEPEETMPDKNEEEEEELLKPVWIRCTHSENYYSSDPMDQVGDSTVVGTSRLRDLYDKFEEELGSRQEKAKAARPPWEPPKTKLDEDLESSSESECESDEDSTCSSSSDSEVFDVIAEIKRKKAHPDRLHDELWYNDPGQMNDGPLCKCSAKARRTGIRHSIYPGEEAIKPCRPMTNNAGRLFHYRITVSPPTNFLTDRPTVIEYDDHEYIFEGFSMFAHAPLTNIPLCKVIRFNIDYTIHFIEEMMPENFCVKGLELFSLFLFRDILELYDWNLKGPLFEDSPPCCPRFHFMPRFVRFLPDGGKEVLSMHQILLYLLRCSKALVPEEEIANMLQWEELEWQKYAEECKGMIVTNPGTKPSSVRIDQLDREQFNPDVITFPIIVHFGIRPAQLSYAGDPQYQKLWKSYVKLRHLLANSPKVKQTDKQKLAQREEALQKIRQKNTMRREVTVELSSQGFWKTGIRSDVCQHAMMLPVLTHHIRYHQCLMHLDKLIGYTFQDRCLLQLAMTHPSHHLNFGMNPDHARNSLSNCGIRQPKYGDRKVHHMHMRKKGINTLINIMSRLGQDDPTPSRINHNERLEFLGDAVVEFLTSVHLYYLFPSLEEGGLATYRTAIVQNQHLAMLAKKLELDRFMLYAHGPDLCRESDLRHAMANCFEALIGAVYLEGSLEEAKQLFGRLLFNDPDLREVWLNYPLHPLQLQEPNTDRQLIETSPVLQKLTEFEEAIGVIFTHVRLLARAFTLRTVGFNHLTLGHNQRMEFLGDSIMQLVATEYLFIHFPDHHEGHLTLLRSSLVNNRTQAKVAEELGMQEYAITNDKTKRPVALRTKTLADLLESFIAALYIDKDLEYVHTFMNVCFFPRLKEFILNQDWNDPKSQLQQCCLTLRTEGKEPDIPLYKTLQTVGPSHARTYTVAVYFKGERIGCGKGPSIQQAEMGAAMDALEKYNFPQMAHQKRFIERKYRQELKEMRWEREHQEREPDETEDIKK
notes: Endogenous protein in nuclear extracts, not a purified recombinant construct; also called nuclear RNase III enzyme; SEMK2 Drosha

Experiment [1] has as its target B2. Kind of experiment: co-IP with anti-Drosha Ab, Western blot. The protocol: (§1) FIG. 2A) Western blot detection of immunoprecipitated proteins. […] For unambiguous identification of Drosha, recombinant Drosha exogenously expressed in K562 cells transfected with pCK-Drosha-Flag plasmid was purified by IP (Drosha:FLAG). 20 μg nuclear extracts of leukemic cells or around 2.5 μg of immuno-purified Drosha were used in the analysis. Note that endogenous Drosha was purified from nuclear extracts while Drosha:FLAG was from whole cell lyzate.
(§2) K562 cells were transfected with pCK-drosha-flag by using a Nucleofector apparatus according to the manufacturer's instructions (AMAXA). 2 ×10^8 transfected cells were lysed and subjected to IP with anti-Flag M2 mAb as described in ref. 11. Briefly, 25 mg whole cell lysate were incubated with 500 μg mAb after preclearing with protein G Sepharose (GE Healthcare) at 4° C., O/N. Immunocomplex was precipitated with protein G Sepharose, washed, and the Drosha:FLAG in the precipitate was eluted by adding 3×FLAG peptide at a concentration of 0.4 mg/ml in a buffer containing 30 mM Hepes, pH7.4/100 mM KCl/5% Glycerol/0.2 mM EDTA/7.5 mM MgCl_2/2 mM DTT. Elution was repeated three times, each for 30 min at RT, and eluates were combined. For immunoprecipitation of endogenous Drosha, 50 mg of nuclear extracts from SEMK2 or PER377 cells prepared by the method of Dignam et al. (19) were subjected to IP with 300 μg of anti-Drosha Ab. […]

The target of experiment [2] is T1, normal p300 All1 (endogenous) (human, UniProt Q03164 1-2718, limits assumed).
T1 construct: also called normal All1
The experiment can be described thus: co-immunoprecipitation with anti-Drosha Ab from nuclear extracts, Western blot. The protocol: as §1, §2
(Immunoblotting shows a protein as a band on a membrane.)

T1 sequence (Q03164 1-2718 limits assumed): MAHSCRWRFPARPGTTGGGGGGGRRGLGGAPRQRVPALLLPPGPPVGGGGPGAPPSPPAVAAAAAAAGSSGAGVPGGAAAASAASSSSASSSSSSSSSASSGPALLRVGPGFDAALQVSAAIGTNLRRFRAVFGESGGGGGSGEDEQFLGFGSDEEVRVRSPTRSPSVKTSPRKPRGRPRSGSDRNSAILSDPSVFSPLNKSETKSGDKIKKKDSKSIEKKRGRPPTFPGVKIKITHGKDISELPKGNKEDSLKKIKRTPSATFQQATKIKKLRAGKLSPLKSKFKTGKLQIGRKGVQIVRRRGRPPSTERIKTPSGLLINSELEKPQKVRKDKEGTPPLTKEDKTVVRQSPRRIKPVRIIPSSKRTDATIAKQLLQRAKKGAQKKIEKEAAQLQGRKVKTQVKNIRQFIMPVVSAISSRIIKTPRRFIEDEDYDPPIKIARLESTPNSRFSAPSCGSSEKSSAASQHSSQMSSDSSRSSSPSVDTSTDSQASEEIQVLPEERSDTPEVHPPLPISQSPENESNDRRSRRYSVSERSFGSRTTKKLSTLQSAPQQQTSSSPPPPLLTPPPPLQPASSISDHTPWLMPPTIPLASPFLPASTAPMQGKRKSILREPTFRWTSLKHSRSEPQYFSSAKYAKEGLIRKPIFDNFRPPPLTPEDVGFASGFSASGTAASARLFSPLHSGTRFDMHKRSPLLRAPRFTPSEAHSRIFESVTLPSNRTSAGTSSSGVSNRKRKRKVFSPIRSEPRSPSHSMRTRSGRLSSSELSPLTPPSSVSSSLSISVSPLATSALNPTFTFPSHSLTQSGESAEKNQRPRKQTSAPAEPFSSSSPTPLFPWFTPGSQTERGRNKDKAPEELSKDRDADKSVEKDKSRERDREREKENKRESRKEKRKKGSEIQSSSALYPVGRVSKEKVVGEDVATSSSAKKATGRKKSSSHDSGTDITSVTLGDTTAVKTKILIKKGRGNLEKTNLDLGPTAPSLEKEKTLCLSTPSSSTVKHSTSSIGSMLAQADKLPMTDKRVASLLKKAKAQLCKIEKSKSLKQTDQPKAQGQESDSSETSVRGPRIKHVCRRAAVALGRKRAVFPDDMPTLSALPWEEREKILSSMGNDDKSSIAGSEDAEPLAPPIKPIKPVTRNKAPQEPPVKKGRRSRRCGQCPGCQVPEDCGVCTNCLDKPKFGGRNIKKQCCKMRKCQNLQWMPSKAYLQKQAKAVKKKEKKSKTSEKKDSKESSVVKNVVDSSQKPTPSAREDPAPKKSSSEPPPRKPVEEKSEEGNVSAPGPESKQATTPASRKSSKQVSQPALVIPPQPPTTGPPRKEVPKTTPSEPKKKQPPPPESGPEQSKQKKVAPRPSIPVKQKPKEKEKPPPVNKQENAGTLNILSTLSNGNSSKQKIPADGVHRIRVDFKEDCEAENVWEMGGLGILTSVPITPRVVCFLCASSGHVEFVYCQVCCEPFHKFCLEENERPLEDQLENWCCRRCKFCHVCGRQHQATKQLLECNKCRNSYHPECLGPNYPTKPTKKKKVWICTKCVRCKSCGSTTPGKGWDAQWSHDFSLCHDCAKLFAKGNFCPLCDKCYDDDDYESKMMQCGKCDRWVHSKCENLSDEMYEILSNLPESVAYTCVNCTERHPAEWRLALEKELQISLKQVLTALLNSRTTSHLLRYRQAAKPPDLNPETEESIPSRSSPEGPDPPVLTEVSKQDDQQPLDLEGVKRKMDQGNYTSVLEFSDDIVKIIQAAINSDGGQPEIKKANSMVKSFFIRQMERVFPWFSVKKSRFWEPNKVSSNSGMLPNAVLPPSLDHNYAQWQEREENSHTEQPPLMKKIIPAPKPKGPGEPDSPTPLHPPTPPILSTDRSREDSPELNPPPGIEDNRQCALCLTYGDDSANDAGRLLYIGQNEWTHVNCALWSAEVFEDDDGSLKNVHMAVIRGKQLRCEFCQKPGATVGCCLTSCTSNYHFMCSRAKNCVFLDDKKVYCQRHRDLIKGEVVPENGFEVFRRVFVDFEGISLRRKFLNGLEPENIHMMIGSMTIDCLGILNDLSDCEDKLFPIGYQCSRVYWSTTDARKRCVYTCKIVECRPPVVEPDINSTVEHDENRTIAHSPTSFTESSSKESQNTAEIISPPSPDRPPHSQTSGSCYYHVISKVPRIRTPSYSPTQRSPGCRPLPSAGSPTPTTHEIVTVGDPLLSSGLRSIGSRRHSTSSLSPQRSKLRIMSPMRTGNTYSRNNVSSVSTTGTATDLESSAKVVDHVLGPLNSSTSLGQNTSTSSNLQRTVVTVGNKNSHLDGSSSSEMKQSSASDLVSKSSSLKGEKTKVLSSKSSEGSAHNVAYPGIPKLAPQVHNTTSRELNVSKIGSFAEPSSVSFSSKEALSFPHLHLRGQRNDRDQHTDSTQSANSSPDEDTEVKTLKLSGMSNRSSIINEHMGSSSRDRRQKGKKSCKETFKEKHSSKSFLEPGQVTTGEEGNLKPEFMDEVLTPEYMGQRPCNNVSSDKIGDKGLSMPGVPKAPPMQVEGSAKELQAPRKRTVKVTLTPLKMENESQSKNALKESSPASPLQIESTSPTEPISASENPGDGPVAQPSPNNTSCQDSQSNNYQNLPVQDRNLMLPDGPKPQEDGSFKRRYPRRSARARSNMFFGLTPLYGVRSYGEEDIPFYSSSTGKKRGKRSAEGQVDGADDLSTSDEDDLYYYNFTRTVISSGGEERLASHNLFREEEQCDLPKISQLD

B1: DGCR8 (endogenous) (other, human, UniProt Q8WYQ5 1-773, looked up)
chain: METDESPSPLPCGPAGEAVMESRARPFQALPREQSPPPPLQTSSGAEVMDVGSGGDGQSELPAEDPFNFYGASLLSKGSFSKGRLLIDPNCSGHSPRTARHAPAVRKFSPDLKLLKDVKISVSFTESCRSKDRKVLYTGAERDVRAECGLLLSPVSGDVHACPFGGSVGDGVGIGGESADKKDEENELDQEKRVEYAVLDELEDFTDNLELDEEGAGGFTAKAIVQRDRVDEEALNFPYEDDFDNDVDALLEEGLCAPKKRRTEEKYGGDSDHPSDGETSVQPMMTKIKTVLKSRGRPPTEPLPDGWIMTFHNSGVPVYLHRESRVVTWSRPYFLGTGSIRKHDPPLSSIPCLHYKKMKDNEEREQSSDLTPSGDVSPVKPLSRSAELEFPLDEPDSMGADPGPPDEKDPLGAEAAPGALGQVKAKVEVCKDESVDLEEFRSYLEKRFDFEQVTVKKFRTWAERRQFNREMKRKQAESERPILPANQKLITLSVQDAPTKKEFVINPNGKSEVCILHEYMQRVLKVRPVYNFFECENPSEPFGASVTIDGVTYGSGTASSKKLAKNKAARATLEILIPDFVKQTSEEKPKDSEELEYFNHISIEDSRVYELTSKAGLLSPYQILHECLKRNHGMGDTSIKFEVVPGKNQKSEYVMACGKHTVRGWCKNKRVGKQLASQKILQLLHPHVKNWGSLLRMYGRESSKMVKQETSDKSVIELQQYAKKNKPNLHILSKLQEEMKRLAEEREETRKKPKMSIVASAQPGGEPLCTVDV
Regarding B1, in experiment [1], the binding result is given as “binds”.

Turning to B2, in experiment [2], the binding result is “no binding”.
